Test results from patent US20210107983A1 (Boehringer Ingelheim, published 2021).

Columns and labels:
[1] = target: T1, human B7H6 on HCT-15 cells (human, UniProt Q68D85 25-454); test: cell-based or functional assay
T1 sequence (looked up): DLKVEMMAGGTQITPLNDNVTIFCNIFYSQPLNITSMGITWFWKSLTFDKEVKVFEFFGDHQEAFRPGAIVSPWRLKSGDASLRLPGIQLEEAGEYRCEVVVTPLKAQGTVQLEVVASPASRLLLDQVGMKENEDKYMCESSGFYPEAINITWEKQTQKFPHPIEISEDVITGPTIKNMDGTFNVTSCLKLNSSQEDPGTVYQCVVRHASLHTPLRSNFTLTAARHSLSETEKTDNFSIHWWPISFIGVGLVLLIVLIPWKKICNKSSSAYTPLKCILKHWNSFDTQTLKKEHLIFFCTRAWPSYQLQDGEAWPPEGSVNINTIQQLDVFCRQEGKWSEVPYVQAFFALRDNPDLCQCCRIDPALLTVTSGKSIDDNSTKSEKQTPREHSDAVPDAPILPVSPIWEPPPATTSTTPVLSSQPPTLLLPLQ

[2] = target: T1, human B7H6 on HCT-15 cells; test: flow cytometry on HCT-15 cells, PE anti-human secondary antibody
Protocol: Binding of B7H6/CD3 binding proteins to HCT-15, a human (colo-rectal cancer) CRC cell line was tested by flow cytometry. In a previous experiment, it has been confirmed that HCT-15 cells expresses B7-H6 on the RNA levels as well as the protein level with approximately 8,000 B7-H6 receptors on the cell surface (data not shown). B7H6/CD3 binding proteins were produced, as described in Example 2. HCT-15 cells were stained with increasing concentrations of two-step purified B7H6/CD3 binding proteins in FACS buffer (PBS/0.5% BSA/0.05% sodium azide). Bound molecules were detected with PE-conjugated anti-human secondary antibody (Sigma-Aldrich, #P8047).

[3] = target: T2, Fc-His-tagged human B7H6 ECD (human); test: ELISA, plate coated with Fc-His-tagged human B7H6 ECD, anti-human IgG F(ab')2-peroxidase, TMB
T2 construct: also called huB7H6-ECD-Fc-His; recombinant human B7H6 ECD

[4] = target: T3, Fc-His-tagged human Ala-mutated B7H6 ECD (human); test: ELISA, plate coated with Fc-His-tagged human Ala-mutated B7H6 ECD, anti-human IgG F(ab')2-peroxidase, TMB
T3 construct: also called huB7H6-Ala-ECD
Protocol: To assess binding of B7H6/CD3 binding proteins to recombinant human Fc-His-tagged B7H6 ECD and human Fc-His-tagged Ala-mutated B7H6 extracellular proteins as described in Example 3, MediSorp™ plates (Nunc, 467320) were coated with […] recombinant proteins overnight at 4° C. The next day, plates were blocked with 0.5% bovine serum albumin (BSA) in phosphate buffered saline (PBS) for 1 hour at room temperature (RT). Subsequently plates were washed with […] containing 0.05% TWEEN®20 viscous liquid and B7H6/CD3 binding proteins were incubated at concentrations ranging from 0.00001 to 10 μg/ml. After an additional washing step, bound B7H6/CD3 binding proteins were detected by a peroxidase conjugated goat anti-human IgG F(ab′)₂-specific secondary antibody (Jackson Immunoresearch) and visualized by TMB substrate solution (Bender Med Systems).

EC50 (read off the curve) [2]: ~0.4 nM
EC50 (read off the curve) [3]: ~0.05 µg/mL
binding result [4]: no binding (tested: 10 µg/ml)
B1: B7H6#8/CD3#1 (bispecific antibody, human IgG1, kappa, lambda, L234A L235A)
chain 1: DIVMTQSPLSLPVTPGEPASISCRSSQSLLYNNRYNYLDWYLQKPGQSPEVLIYLGSNRASGVPDRFSGSGSGTDFTLKISRVEAEDFGVYYCMQTLQIPITFGQGTRLEIKRTVAAPSVFIFPPSDEQLKSGTASVVCLLNNFYPREAKVQWKVDNALQSGNSQESVTEQDSKDSTYSLSSTLTLSKADYEKHKVYACEVTHQGLSSPVTKSFNRGECGGGGSEGKSSGSGSESKSTEGKSSGSGSESKSTGGGGSQVQVVQSGAEVKKPGSSVKVSCKGSGDTLNSYGISWMRQAPGQGLEWMGGIIPIFDTTKYAQKFQGRVTITADKSTTTVYMELSSLRFEDTAVYYCARERGYRFSEDYYFYYGMDVWGQGTTVTVSSASTKGPSVFPLAPSSKSTSGGTAALGCLVKDYFPEPVTVSWNSGALTSGVHTFPAVLQSSGLYSLSSVVTVPSSSLGTQTYICNVNHKPSNTKVDKRVEPKSCDKTHTCPPCPAPEAAGGPSVFLFPPKPKDTLMISRTPEVTCVVVDVSHEDPEVKFNWYVDGVEVHNAKTKPREEQYNSTYRVVSVLTVLHQDWLNGKEYKCKVSNKALPAPIEKTISKAKGQPREPQVYTLPPSREEMTKNQVSLWCLVKGFYPSDIAVEWESNGQPENNYKTTPPVLDSDGSFFLYSKLTVDKSRWQQGNVFSCSVMHEALHNHYTQKSLSLSPG
chain 2: EAVVTQEPSLTVSPGGTVTLTCRSSTGAVTTSNYANWVQEKPGQLPRGLIGGTNKRAPWVPARFSGSLLGGKAALTLSGAQPEDEAEYFCALWYSNLWVFGGGTKLTVLGQPKAAPSVTLFPPSSEELQANKATLVCLISDFYPGAVKVAWKADGSPVNTGVETTTPSKQSNNKYAASSYLSLTPEQWKSHRSYSCQVTHEGSTVEKTVAPAECSGGGGSEGKSSGSGSESKSTEGKSSGSGSESKSTGGGGSEVQLVESGGGLVQPGGSLKLSCAASGFTFNTYAMNWVRQAPGKGLEWVARIRSKYNNYATYYADSVKDRFTISRDDSKNTAYLQMNNLKTEDTAVYYCVRHGNFGNSYVSWFAYWGQGTLVTVSAASTKGPSVFPLAPSSKSTSGGTAALGCLVKDYFPEPVTVSWNSGALTSGVHTFPAVLQSSGLYSLSSVVTVPSSSLGTQTYICNVNHKPSNTKVDKRVEPKSCDKTHTCPPCPAPEAAGGPSVFLFPPKPKDTLMISRTPEVTCVVVDVSHEDPEVKFNWYVDGVEVHNAKTKPREEQYNSTYRVVSVLTVLHQDWLNGKEYKCKVSNKALPAPIEKTISKAKGQPREPQVYTLPPSREEMTKNQVSLSCAVKGFYPSDIAVEWESNGQPENNYKTTPPVLDSDGSFFLVSKLTVDKSRWQQGNVFSCSVMHEALHNRFTQKSLSLSPG
notes: scFab-Fc heterodimer, one B7H6 chain and one CD3 chain
EC50 [nM], 72 hour cytotoxicity assay, non-stimulated T-cells (Donor #1) as effector cells, HCT-15 cells as target cells [1]: 0.62 nM
